Test results published in publication PMC10580935.

Columns and labels:
Experiment in all cases: EMSA
Conditions in all cases: 20 mM Tris-HCl pH 8.0, 1 mM DTT, 50 mM KCl, 5 mM MgCl2, 0.05 mg/mL BSA, 10% glycerol
[1] = target: T1, IdeR;Zur (Mycobacterium bovis BCG;Mycobacterium bovis BCG) (UniProt P9WMH1+P9WN85)
T1 sequence 1: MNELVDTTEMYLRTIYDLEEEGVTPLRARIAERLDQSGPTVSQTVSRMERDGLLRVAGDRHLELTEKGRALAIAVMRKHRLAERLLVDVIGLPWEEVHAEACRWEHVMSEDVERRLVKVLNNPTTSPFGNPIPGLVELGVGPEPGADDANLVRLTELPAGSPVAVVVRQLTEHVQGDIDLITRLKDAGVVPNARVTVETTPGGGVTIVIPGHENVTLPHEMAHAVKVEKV
T1 sequence 2: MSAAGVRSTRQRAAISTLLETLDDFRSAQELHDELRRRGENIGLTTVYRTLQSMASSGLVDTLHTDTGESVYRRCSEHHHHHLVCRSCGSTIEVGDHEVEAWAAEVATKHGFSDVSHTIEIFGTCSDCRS

[2] = target: T2, IdeR (Mycobacterium bovis BCG) (UniProt P9WMH1)
T2 sequence: T1 sequence 1

[3] = target: T3, Zur (Mycobacterium bovis BCG) (UniProt P9WN85)
T3 sequence: T1 sequence 2

ACGTCAGCGTCTACCTTGCCATTTACCCGAGACGCGACGGGGGAAGCGGCCACCATGCCAATGTCATCACGCTCCACGCCTCCGCTGTCTCCTTCACCTACGCCCGCCATCGGCCGATCCGCCTGAACTTTGCCCCGAAGTTAGCATTGCATAAGCTAACTGTCGAGGCGACCGCGACCAATCGACTCGGCCCTGCGGCCAAGCTTTTAGGCACGGCTGGCAAGATCATGACCGATACTCCATTTCGTTGGTAGCCCGATATGCAGAGTGTAG (double strand) [esx-3p2]
binding [1]: binds | binding [2]: binds | binding [3]: no binding
